This note sets out measurements from patent US6833355 (HANSA MEDICAL, dated 2004).

To fix the notation:
B1: protein H of Streptococcus pyogenes, COOH-terminally truncated fragment expressed by and purified from E. coli (305 amino acids) (other)
chain: EGAKIDWQEEYKKLDEDNAKLVEVVETTSLENEKLKSENEENKKNLDKLSKENQGKLEKLELDYLKKLDHEHKEHQKEQQEQEERQKNQEQLERKYQREVEKRYQEQLQKQQQLETEKQISEASRKSLSRDLEASRAAKKDLEAEHQKLEAEHQKLKEDKQISDASRQGLSRDLEASRAAKKELEANHQKLEAEHQKLKEDKQISDASRQGLSRDLEASRAAKKELEANHQKLEAEAKALKEQLAKQAEELAKLRAGKASDSQTPDTKPGNKAVPGKGQAPQAGTKPNQNKAPMKETKRQLPSTG
notes: 42-346 is the same stretch counted from the first Met of the entry; Depending on the assay, protein H was coupled to CNBr-Sepharose, labelled with 125I (Bolton-Hunter), biotinylated or unlabelled; also called recombinant protein H; soluble protein H
B2: COOH-terminal fragment of NPM, in vitro translated and 35S-methionine-labelled (other)
chain: GSKVPQKKVKLAADEDDDDDDEEDDDEDDDDDDFDDEEAEEKAPVKKSIRDTPAKNAQKSNQNGKDSKPSSTPRSKGQESFKKQEKTPKTPKGPSSVEDIKAKMQASIEKGGSLPKVEAKFINYVKNCFRMTDQEAIQDLWQWRKSL
modifications: 35S-methionine label
notes: domain: COOH-terminal half; also called COOH-terminal peptide; COOH-terminal half of NPM

Assay [1] has as its target actin from porcine heart (Sigma) (porcine, UniProt B6VNT8 3-377). Description: SPR (BIACORE X), protein H over immobilised actin; mean ± SD of three experiments.
The target in assay [2] is B1. Nature of the assay: Affinity chromatography of the 35S-labelled in vitro translated peptide on protein H-Sepharose, then SDS-PAGE and autoradiography.

Usually Kd stands for the free concentration of one partner at which half of the binding sites on the other are occupied at equilibrium, for simple one-to-one binding. A word on the koff: it is a measure of how fast the partners let go of each other. A high value points to fast dissociation. One may read the kon as the second-order rate constant of association. High values mean fast association, low ones slow association. Take B1: in assay [1], the Ka came out at 1.7e+06 M⁻¹, binding was put at a Kd of 600 nM, the koff came to 0.0015 s⁻¹ and the kon turned out to be 2500 M⁻¹ s⁻¹.
Consider B2, for which the binding result in assay [2] is “no binding”.
